Test [1] addresses T1, Bdf1 bromodomain 1 (GST-tagged, WT) (Saccharomyces cerevisiae (strain ATCC …, UniProt P35817)).
T1 chain: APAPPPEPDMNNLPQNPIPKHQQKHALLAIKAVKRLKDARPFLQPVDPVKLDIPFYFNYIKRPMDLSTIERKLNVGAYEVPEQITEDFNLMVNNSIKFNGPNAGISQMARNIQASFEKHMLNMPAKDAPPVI
Kind of test: histone peptide array probed with recombinant GST-bromodomain, signal normalised to myc peptide control.

Test [2] concerns the target T2, Bdf1 bromodomain 2 (GST-tagged, WT) (Saccharomyces cerevisiae (strain ATCC …, UniProt P35817)).
T2 chain: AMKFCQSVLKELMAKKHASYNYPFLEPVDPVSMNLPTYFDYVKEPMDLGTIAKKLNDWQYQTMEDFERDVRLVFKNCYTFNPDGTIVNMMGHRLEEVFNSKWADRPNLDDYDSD
The test is described as above.

The text below walks through data of paper PMC5261807 (2017).

Non-standard residues stand in square brackets, D forms with d. Primed or numbered codes have the meaning given here. No end group written: not given here. Me2a″ = asymmetric dimethylarginine (Rme2a); Me2s″ = symmetric dimethylarginine (Rme2s); Arg(Me2a) = CN(C)C(=N)NCCC[C@H](N)C(=O)O; Lys(Me3) = C[N+](C)(C)CCCC[C@H](N)C(=O)O; Arg(Me2s) = CN=C(NC)NCCC[C@H](N)C(=O)O; pT = C[C@@H](OP(=O)(O)O)[C@H](N)C(=O)O; Me2a = asymmetric dimethyl (on Arg); Lys(Me2) = CN(C)CCCC[C@H](N)C(=O)O; Me2s = symmetric dimethyl (on Arg); pS = N[C@@H](COP(=O)(O)O)C(=O)O; Lys(Me) = CNCCCC[C@H](N)C(=O)O; Me3 = trimethyl (on Lys)

Consider PDPAKSAPAPKKG[pS]KKAVT, for which the binding score in test [1] worked out at 0.00699; in test [2], 0.

B1: H3 26-45 (peptide)
chain: RKSAPATGGVKKPHRYRPG
modifications: histone peptides carry modifications given inline in the sequence and in columns 4-7 (Kac, Kme1/2/3, Rme2a/s, Cit, pS/pT); N-terminus free or acetylated
For B1, the binding score in test [1] amounted to 0.00968; in test [2], 0.00305.
The corresponding values for ARTKQTARKSTGGKAPRKQ (A R T K Q T A R Kme2 S T G G Kac A P R K Q) are 0.0411 and 0.104.
For PRKQLATKAAR(Me2a″)K(Ac)[pS]APATGG, the binding score turned out to be 0.00143 in test [1] and 0 in test [2].
Regarding ARTKQTARKSTGGKAPRKQ (A Rme2a T Kme1 Q T A Rme2a Kme2 S T G G K A P R K Q), the binding score stood at 0.00251 in test [1] and 0.000885 in test [2].
In the case of SGRGK(Ac)QGGKARAK(Ac)AKSRSS, the binding score in test [1] is 0.0151; in test [2] it was 0.127.
Take ARTKQTARKSTGGKAPRKQ (A R T K Q T A R K pS pT G G K A P R K Q): the binding score was determined as 0.00681 in test [1] and 0 in test [2].
For PRKQLATKAA[Arg(Me2a)]KSAPATGG, in that order: 0 and 0.
With ARTKQTARKSTGGKAPRKQ (A Rme2s T Kme2 Q T A Rme2s K S T G G K A P R K Q), the binding score in test [1] was determined as 0; in test [2], 0.00226.
For AR(Me2a)TK(Me)QTAR(Me2s)K(Me3)STGGKAPRKQ, in that order: 0.0113 and 0.
For A[Arg(Me2a)]TK(Ac)QTARKSTGGKAPRKQ, in that order: 0.00897 and 0.00915.
For AR[pT]KQTARKSTGGKAPRKQ, the values for the binding score in test [1] and in test [2] were 0 and 0.0062, respectively.
As to A[Arg(Me2a)]TK(Ac)QTA[Arg(Me2s)][Lys(Me2)]STGGKAPRKQ, the figures for the binding score in test [1] and in test [2] were 0.0188 and 0.00482, respectively.
For the molecule ARTKQTARKSTGGKAPRKQ (A Rme2a T Kme3 Q T A Rme2s Kme2 S T G G K A P R K Q), the binding score in test [1] came out at 0.00269; in test [2] it was 0.
Turning to ARTKQTARKSTGGKAPRKQ (A R T K Q T A R Kac S pT G G K A P R K Q), the binding score in test [1] and in test [2] was 0 throughout.
For the molecule A[Arg(Me2a)]TK(Me)QTARKSTGGKAPRKQ, the binding score in test [1] and in test [2] was 0 in each case.
Regarding ARTKQTARKSTGGKAPRKQ (A R T K Q T A R K S pT G G Kac A P R K Q), the figures for the binding score in test [1] and in test [2] were 0.00574 and 0.121, respectively.
With ARTKQTARKSTGGKAPRKQ (A R T K Q T A R Kme2 S pT G G K A P R K Q), the binding score in test [1] and in test [2] was 0 throughout.
Take ARTKQTARKSTGGKAPRKQ (A R T Kme2 Q T A Rme2s Kme2 S T G G K A P R K Q): the figures for the binding score in test [1] and in test [2] were 0 and 0.00325, respectively.
For A[Arg(Me2s)]T[Lys(Me)]QTA[Arg(Me2a)][Lys(Me)]STGGKAPRKQ, in that order: 0.00126 and 0.
With A[Arg(Me2a)]TK(Me3)QTARKSTGGKAPRKQ, the results for the binding score in test [1] and in test [2] were 0.0122 and 0.00344, respectively.
The corresponding values for ARTKQTARKSTGGKAPRKQ (A Rme2s T Kme2 Q T A Rme2a Kme2 S T G G K A P R K Q) are 0 and 0.
The corresponding values for ARTKQTARKSTGGKAPRKQ (A Rme2s T Kac Q T A Rme2a Kac S T G G K A P R K Q) are 0.0545 and 0.0894.
The corresponding values for ARTK(Me3)QTARKSTGGKAPRKQ are 0 and 0.00148.
Consider ARTKQTA[Arg(Me2a)]K(Ac)[pS]TGGKAPRKQ, for which the binding score came out at 0.00126 in test [1] and 0.00384 in test [2].
The corresponding values for [pS]GRGK(Ac)QGGK(Ac)ARAKAKSRSS are 0.00663 and 0.162.
The corresponding values for A[Arg(Me2s)]T[Lys(Me2)]QTA[Arg(Me2s)][Lys(Me2)]STGGKAPRKQ are 0 and 0.
For ART[Lys(Me3)]QTA[Arg(Me2a)][Lys(Me2)]STGGKAPRKQ, in that order: 0.000538 and 0.
As for SGRGKGGKGLGKGGAKRHR (S G R G K G G K G L G K G G A Kac R H R), the binding score in test [1] and in test [2] was 0 each time.
For the molecule [pS]GRGKQGGK(Ac)ARAK(Ac)AKSRSS, the figures for the binding score in test [1] and in test [2] were 0.0477 and 0.186, respectively.
The corresponding values for SGRGKGGKGLGKGGAKRHR (S G R G Kac G G Kac G L G Kac G G A K R H R) are 0.307 and 0.496.
For the molecule ARTKQTARKSTGGKAPRKQ (A Rme2s T Kme3 Q T A Rme2s Kme1 S T G G K A P R K Q), the binding score in test [1] stood at 0.00161; in test [2], 0.00187.
As to [pS]GRGK(Ac)QGGK(Ac)ARAK(Ac)AKSRSS, the binding score worked out at 0.0949 in test [1] and 0.388 in test [2].
For ARTKQTARKSTGGKAPRKQ (A Rme2a T Kac Q T A Rme2s Kme1 S T G G K A P R K Q), in that order: 0 and 0.
For ARTKQTARKSTGGKAPRKQ (A R T K Q T A R Kme3 S T G G K A P R K Q), in that order: 0 and 0.00305.
For the molecule PRKQLATKAA[Arg(Me2s)]KSAPATGG, the binding score in test [1] and in test [2] was 0 each time.
Regarding PDPAK(Ac)SAPAPKK(Ac)GSK(Ac)KAVT, the binding score in test [1] worked out at 0; in test [2], 0.329.
For ARTKQTARKSTGGKAPRKQ (A R T Kme3 Q T A Rme2s Kme3 S T G G K A P R K Q), in that order: 0 and 0.
For AR(Me2s″)TK(Me)QTARK(Me)STGGKAPRKQ, in that order: 0 and 0.0105.
Turning to A[Arg(Me2a)][pT]K(Ac)QTARKSTGGKAPRKQ, the binding score in test [1] worked out at 0.0346; in test [2], 0.0394.
For PDPAK(Ac)SAPAPKKGSK(Ac)KAVT, in that order: 0.00143 and 0.
As for ARTKQTARKSTGGKAPRKQ (A R T Kme2 Q T A Rme2s Kme1 S T G G K A P R K Q), the binding score in test [1] and in test [2] was 0 each time.
As to A[Arg(Me2a)]T[Lys(Me2)]QTA[Arg(Me2a)][Lys(Me3)]STGGKAPRKQ, the binding score in test [1] and in test [2] was 0 in each case.
On to ARTK(Me)QTARKSTGGKAPRKQ, for which the binding score was 0 in test [1] and 0.00305 in test [2].
